Measured values as given in patent US20040002450A1, “Y17 - isolated molecules comprising epitopes containing sulfated moieties, antibodies to such epitopes, and uses thereof” (priority 2000, published 2004).

Assays:
[1] = tested on: platelet-rich-plasma (PRP); test: Ristocetin-induced aggregation of platelet-rich-plasma after scFv preincubation; type: cell-based, human; settings: for % inhibition: ristocetin
Protocol: The effect of Y1 (scFv) on aggregation of platelet-rich-plasma (PRP) was tested at various concentrations of Y1. PRP was pre-incubated with Y1 scFv, Y17 scFv, or a control sTM-1cFv for 4 min at 37° C. before being exposed to ristocetin, an inducer of platelet agglutination and aggregation. A reversible inhibitory effect was observed when scFv was added to PRP prior to the addition of ristocetin, and it was dose dependent.
Blood was collected into a tube containing 3.8% sodium citrate. Platelet-rich plasma was prepared by centrifugation at 250×g for 10 minutes.
(§1) For platelet aggregation studies, platelet rich plasma (PRP) and washed platelets were stirred at 500 rpm at 37° C. in whole blood Lumiaggregometer (Chronolog, Havertown, Pa.). The difference in light transmission through the platelet suspension and suspending medium was taken as 100% aggregation. The effect of Y1 on platelet aggregation was evaluated by addition of different concentration of Y1 before the addition of agonist, and the effect was recorded for four minutes.

glycocalicin = biological target: T1, glycocalicin (Homo sapiens, UniProt P07359); test: Western blot on natural versus E. coli recombinant glycocalicin; type: binding
T1 construct: GC, amino acid 1 to amino acid 493 of GPIbα; made in house; host or cells: E. coli BL21 (DE3), total cell lysate
Protocol: The DNA fragment encoding for glycocalicin (GC, amino acid 1 to amino acid 493 of GPIbα) was cloned into an IPTG inducible prokaryotic vector cassette. E. coli (BL21 DE3) cells harboring the newly constructed plasmid were grown at 37° C. to O.D. 0.7-0.8, than at 37° C. for 3 hours for in the presence of IPTG for induction
SDS-polyacrylamide gel loaded either with semi-purified human platelet derived glycocalicin (“GC”) or with E. coli cell lysates (“total”) derived from induced and non-induced cells were analyzed. Western blot analysis was performed with biotinylated Y1-scFv, polyclonal rabbit anti-human glycocalicin antibody, commercially available mouse anti-human CD42 monoclonal antibody (SZ2 Immunotech, PM640 Serotec, HIP 1 Pharmigen, AN51 DAKO), and polyclonal antibody against the N-terminus of GPIbα (Sc-7071, Santa Cruz).

washed platelets = test: Ristocetin-induced agglutination of washed platelets after scFv preincubation; type: cell-based, human; settings: for % inhibition / % agglutination: washed platelets; for % inhibition: ristocetin; for % agglutination: ristocetin = 100%
Protocol: Aggregation is determined in PRP due to the presence of thrombotic agents, while agglutination is determined in washed platelets. The effect of Y1 (scFv) on agglutination of washed platelets was tested at various concentrations of Y1. Platelets were pre-incubated with Y1 scFv, Y17 scFv, Y16-scFv, or a control TM-1 scFv for 4 min at 37° C. before being exposed to ristocetin, an inducer of platelet agglutination and aggregation.
Platelet concentrate in acid-citrate-dextrose (ACD) was obtained from a blood bank, platelets were isolated, washed once in buffer containing ACD and saline in a ratio of 1:7. The platelets were centrifuged at 800 g for 10 min after each wash and were resuspended in Tyrodes solution (2 mM MgCl2, 137 mM NaCl, 2.68 mM KCl, 3 mM NaH2PO4, 0.1% glucose, 5 mM Hepes and 0.35% albumin, pH 7.35) and count the number of cells.
as §1
The effect of Y17-scFv on vWF-dependent agglutination of platelets was tested at different concentrations of Y17.

primary leukemia cells = test: FACS analysis of binding to primary leukemia cells of patients; set-up: species or system human
Protocol: Analysis of binding of scFv Y1 antibodies and anti-CD162 antibodies to diseased cells also illustrates that scFv Y1 has binding characteristics different from those of anti-CD-162 antibodies. […] Table F). Y1 binds to the leukemic cells in 10 of 12 samples. In contrast, anti-CD162 bound only 5 out of 12 samples. […] Thus, it may be concluded that, in leukemic cells, scFv Y1 binds to a ligand other than that recognized by anti-CD162.
Samples provided from hospitals. Patients sample 30 μl/tube. Add 5 μl/tube of CD33-APC (for AML) or CD19-APC (for B-CLL) or CD38-APC (for Multiple Myeloma). Add 5 μl/tube of CD45-PerCp and 5 μl of scFv-Y1 or control scFv-N31 or CD162-PE (KPL1). Incubate tubes 30 minutes at 4° C. with low shaking. Wash by adding 2 ml PBS and spin 5 minutes at 1200 rpm. Discard supernatant.
For a one step assay continue with the lysis step:
Add 500 μl BD Lysine solution diluted 1:10 with ddH2O (300 μl to patient sample). Vortex at high speed and incubate 12 minutes at 4° C. Wash as above. Discard supernatant. And add 500 μl PBS. The samples are read in the FACS using blood sample acquisition setup according to international standards.
For two or more assays: working buffer is PBS+1% BSA+0.05% sodium azide. Incubations and wash as above.
Lysis of the red blood cells is the final step in the assay, followed by resuspension with 500 μl PBS.

B1: Y1 scFv: fully human scFv clone binding platelets and myelogenous leukemia cells; SEQ ID NO: 25, heavy chain CDR3 SEQ ID NO: 8 (protein, listed as Homo sapiens)
scFv: MKYLLPTAAAGLLLLAAQPAMAEVQLVESGGGVVRPGGSLRLSCAASGFTFDDYGMSWVRQAPGKGLEWVSGINWNGGSTGYADSVKGRFTISRDNAKNSLYLQMNSLRAEDTAVYYCARMRAPVIWGQGTLVTVSRGGGGSGGGGSGGGGSSELTQDPAVSVALGQTVRITCQGDSLRSYYASWYQQKPGQAPVLVIYGKNNRPSGIPDRFSGSSSGNTASLTITGAQAEDEADYYCNSRDSSGNHVVFGGGTKLTVLGAAAEQKLISEEDLNGAA
- effect on ristocetin-induced platelet aggregation in PRP (in words) ([1]; 25 μg/ml): no significant inhibition
- % inhibition ([1]; scFv 25 μg/ml, PRP): 13%
- % aggregation ([1]; scFv 25 μg/ml, PRP, ristocetin = 100%): 87%
- % inhibition ([1]; scFv 50 μg/ml, PRP, first 4 minutes): 80%
- recognition of natural human platelet derived and bacterial recombinant glycocalicin (glycocalicin): recognized the natural human-derived glycocalicin, but did not recognize the bacterial derived recombinant platelet glycocalicin
- effect on ristocetin-induced agglutination of washed platelets (in words) (washed platelets; 4 μg/ml): No inhibition
- effect on ristocetin-induced agglutination of washed platelets (in words) (washed platelets; 12.5 μg/ml): only partial inhibition
- effect on ristocetin-induced agglutination of washed platelets (in words) (washed platelets; 25 μg/ml): inhibited agglutination
- % inhibition (washed platelets; scFv 4 μg/ml): 8%
- % agglutination (washed platelets; scFv 4 μg/ml): 92%
- % inhibition (washed platelets; scFv 12.5 μg/ml): 33%
- % agglutination (washed platelets; scFv 12.5 μg/ml): 67%
- % inhibition (washed platelets; scFv 25 μg/ml): 77%
- % agglutination (washed platelets; scFv 25 μg/ml): 23%
- leukemia patient samples whose leukemic cells are bound (primary leukemia cells; 12 patient samples, FACS): 10 of 12
- % Positive (primary leukemia cells; AML patients): 80%
- Number Positive (primary leukemia cells; AML patients): 60/75
- % Negative (primary leukemia cells; B-ALL, Bone Marrow): 67%
- % Positive (primary leukemia cells; B-ALL, Bone Marrow): 33%
- Number Positive (primary leukemia cells; B-ALL, Bone Marrow): 3/9
- % Negative (primary leukemia cells; B-CLL, Peripheral Blood): 26%
- % Positive (primary leukemia cells; B-CLL, Peripheral Blood): 74%
- Number Positive (primary leukemia cells; B-CLL, Peripheral Blood): 17/23
- % Positive (primary leukemia cells; B-Leukemia patients): 67%
- Number Positive (primary leukemia cells; B-Leukemia patients): 29/43
- % Negative (primary leukemia cells; B-Lymphoma, Peripheral Blood): 38%
- % Positive (primary leukemia cells; B-Lymphoma, Peripheral Blood): 62%
- Number Positive (primary leukemia cells; B-Lymphoma, Peripheral Blood): 5/8
- % Positive (primary leukemia cells; Multiple Myeloma patients): 100%
- Number Positive (primary leukemia cells; Multiple Myeloma patients): 16/16
- % Negative (primary leukemia cells; Pre-B-ALL, Bone Marrow): 0%
- % Positive (primary leukemia cells; Pre-B-ALL, Bone Marrow): 100%
- Number Positive (primary leukemia cells; Pre-B-ALL, Bone Marrow): 3/3
